Test results taken from article PMC4926069.

Molecular target: Angiotensin I-converting enzyme (ACE, EC 3.4.15.1, from rabbit lung) (rabbit) (UniProt P12822)
Sequence of UniProt P12822 (P12822 34-1310): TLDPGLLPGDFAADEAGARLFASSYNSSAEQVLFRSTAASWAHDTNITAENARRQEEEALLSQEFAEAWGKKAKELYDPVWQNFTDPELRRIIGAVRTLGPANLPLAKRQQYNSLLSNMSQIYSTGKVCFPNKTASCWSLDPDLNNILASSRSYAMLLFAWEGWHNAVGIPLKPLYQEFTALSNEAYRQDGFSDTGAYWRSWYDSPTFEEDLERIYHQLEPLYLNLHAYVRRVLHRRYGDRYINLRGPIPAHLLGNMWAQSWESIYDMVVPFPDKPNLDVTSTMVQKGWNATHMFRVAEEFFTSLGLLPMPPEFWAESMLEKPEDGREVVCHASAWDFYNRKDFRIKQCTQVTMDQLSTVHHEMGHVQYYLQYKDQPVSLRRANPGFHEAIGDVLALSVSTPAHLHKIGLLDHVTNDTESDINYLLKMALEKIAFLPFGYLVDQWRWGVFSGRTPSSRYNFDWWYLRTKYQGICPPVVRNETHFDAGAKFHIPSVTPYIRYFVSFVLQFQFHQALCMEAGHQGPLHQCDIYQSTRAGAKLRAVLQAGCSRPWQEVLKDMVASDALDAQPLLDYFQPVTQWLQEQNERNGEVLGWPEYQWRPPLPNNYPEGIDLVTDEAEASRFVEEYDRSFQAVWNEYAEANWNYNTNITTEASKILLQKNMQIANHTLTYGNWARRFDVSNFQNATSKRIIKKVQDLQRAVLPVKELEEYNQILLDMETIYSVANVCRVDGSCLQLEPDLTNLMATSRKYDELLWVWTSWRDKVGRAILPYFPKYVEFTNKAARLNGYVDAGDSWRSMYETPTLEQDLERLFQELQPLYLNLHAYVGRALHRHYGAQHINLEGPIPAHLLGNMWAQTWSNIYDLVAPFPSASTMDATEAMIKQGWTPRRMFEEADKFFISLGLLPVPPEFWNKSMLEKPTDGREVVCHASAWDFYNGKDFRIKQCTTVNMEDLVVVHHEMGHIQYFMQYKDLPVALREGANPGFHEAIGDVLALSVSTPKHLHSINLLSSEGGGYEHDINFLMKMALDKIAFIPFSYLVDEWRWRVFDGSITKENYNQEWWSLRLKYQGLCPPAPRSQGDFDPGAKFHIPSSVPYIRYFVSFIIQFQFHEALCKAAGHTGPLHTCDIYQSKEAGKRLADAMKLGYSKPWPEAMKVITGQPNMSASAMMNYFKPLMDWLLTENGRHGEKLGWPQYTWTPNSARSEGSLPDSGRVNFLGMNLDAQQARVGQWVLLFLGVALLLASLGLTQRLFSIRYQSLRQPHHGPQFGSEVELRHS

- IC50 of inhibition of ACE activity (HHL as substrate, hippuric acid measured by RP-HPLC; 0.25–100 μM peptide, four-parameter logistic fit): 9.8 μM
Substance: Val-Gln-Tyr (VQY) (peptide)
